Measured values as given in the supplement of paper PMC9732359.
± gives the uncertainty stated by the source.

Assay: protein stability index of a GFP-peptide fusion (yeast GPS) (PSI 1-4); higher = more stable; sorted into four equal gates, so the index is relative within each strain
Procedure, shortened: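 For each peptide, the protein stability index sums the read frequency in every gate after multiplying it by the gate number. Read frequencies came from plasmids that were PCR-amplified from each gate and Illumina-sequenced, with reads assigned to strains by barcodes. The gates were four equal bins of GFP/Cherry fluorescence ratio applied to mid-log yeast in leucine-free medium carrying a pooled library of tiled 17-residue yeast protein peptides fused downstream of GFP on a Cherry-expressing plasmid.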

Sequence: YGKLRNGMFCQVPSSLI [RRP4]
- protein stability index (doa10∆): 2.22 ± 0.066
- protein stability index (pdr5∆): 2 ± 0.1
- protein stability index (san1∆): 2.4 ± 0.09
- protein stability index (ubr1∆): 2 ± 0.072

Sequence: YGRDDMENIKKSIDSKT [ISW2]
- protein stability index (doa10∆): 2.87 ± 0.11
- protein stability index (pdr5∆): 2.94 ± 0.1
- protein stability index (san1∆): 3.21 ± 0.062
- protein stability index (ubr1∆): 3.03 ± 0.082

Sequence: YHGNECEINYYEILLKI [SRB8]
- protein stability index (doa10∆): 1.66 ± 0.055
- protein stability index (pdr5∆): 2.86 ± 0.082
- protein stability index (san1∆): 2.24 ± 0.089
- protein stability index (ubr1∆): 2.4 ± 0.082

Sequence: YIDEMYNHNDGGDGRDY [RRI1]
- protein stability index (doa10∆): 2.47 ± 0.1
- protein stability index (pdr5∆): 3.26 ± 0.1
- protein stability index (san1∆): 3.3 ± 0.21
- protein stability index (ubr1∆): 2.75 ± 0.13

Sequence: YILSLVSIKDSTGCVVG [YMR129W/POM152]
- protein stability index (doa10∆): 1.41 ± 0.041
- protein stability index (pdr5∆): 1.47 ± 0.047
- protein stability index (san1∆): 1.92 ± 0.062
- protein stability index (ubr1∆): 1.48 ± 0.034

Sequence: YISLLKLQGLYENIPIY [YDL116W/NUP84]
- protein stability index (doa10∆): 1.67 ± 0.06
- protein stability index (pdr5∆): 1.42 ± 0.045
- protein stability index (san1∆): 1.59 ± 0.12
- protein stability index (ubr1∆): 1.25 ± 0.041

Sequence: YIYSQETKSWINESAEN [MED1]
- protein stability index (doa10∆): 2.58 ± 0.047
- protein stability index (pdr5∆): 2.66 ± 0.039
- protein stability index (san1∆): 2.46 ± 0.048
- protein stability index (ubr1∆): 2.48 ± 0.031

Sequence: YKDVSDLIRSESMLHLS [IRR1]
- protein stability index (doa10∆): 2 ± 0.071
- protein stability index (pdr5∆): 2.29 ± 0.054
- protein stability index (san1∆): 2.11 ± 0.093
- protein stability index (ubr1∆): 2.01 ± 0.043

Sequence: YKHIDASGSINRKVLQA [RPS19A]
- protein stability index (doa10∆): 2.06 ± 0.072
- protein stability index (pdr5∆): 3.27 ± 0.12
- protein stability index (san1∆): 2.49 ± 0.073
- protein stability index (ubr1∆): 2.53 ± 0.083

Sequence: YKVDAEGKVTKLRRECS [RPS31]
- protein stability index (doa10∆): 2.68 ± 0.12
- protein stability index (pdr5∆): 2.92 ± 0.14
- protein stability index (san1∆): 2.67 ± 0.12
- protein stability index (ubr1∆): 3.22 ± 0.078

Sequence: YLCFILSTRAGGLGLNL [SNF2]
- protein stability index (doa10∆): 2.32 ± 0.08
- protein stability index (pdr5∆): 2.04 ± 0.095
- protein stability index (san1∆): 2.19 ± 0.12
- protein stability index (ubr1∆): 2.6 ± 0.11

Sequence: YLERTLDTFIKIDGNPD [PRE5]
- protein stability index (doa10∆): 2.73 ± 0.098
- protein stability index (pdr5∆): 3.2 ± 0.092
- protein stability index (san1∆): 3.04 ± 0.055
- protein stability index (ubr1∆): 3.3 ± 0.078

Sequence: YLTPPHECRLRDMTYSA [RET1]
- protein stability index (doa10∆): 3.22 ± 0.11
- protein stability index (pdr5∆): 3.02 ± 0.12
- protein stability index (san1∆): 2.76 ± 0.16
- protein stability index (ubr1∆): 3.14 ± 0.15

Sequence: YMDKAKQYDNRITKSNE [LRP1]
- protein stability index (doa10∆): 3.08 ± 0.063
- protein stability index (pdr5∆): 2.91 ± 0.056
- protein stability index (san1∆): 2.97 ± 0.057
- protein stability index (ubr1∆): 2.94 ± 0.074

Sequence: YMKFSNKYLELCKLASN [RRI2]
- protein stability index (doa10∆): 1.64 ± 0.05
- protein stability index (pdr5∆): 1.87 ± 0.039
- protein stability index (san1∆): 1.57 ± 0.092
- protein stability index (ubr1∆): 1.76 ± 0.037

Sequence: YNSVRPFGVSTIFGGVD [PRE10]
- protein stability index (doa10∆): 2.53 ± 0.083
- protein stability index (pdr5∆): 2.71 ± 0.068
- protein stability index (san1∆): 2.59 ± 0.14
- protein stability index (ubr1∆): 2.57 ± 0.045

Sequence: YNTNFNLLLRELNVEKL [SRP72]
- protein stability index (doa10∆): 2.9 ± 0.091
- protein stability index (pdr5∆): 3.18 ± 0.11
- protein stability index (san1∆): 2.89 ± 0.089
- protein stability index (ubr1∆): 3.26 ± 0.056

Sequence: YPEVVTPYNIDRLTQLV [RPO21]
- protein stability index (doa10∆): 2.56 ± 0.2

Sequence: YPREEEEDYNEFNSIDR [PRP8]
- protein stability index (doa10∆): 3.32 ± 0.09
- protein stability index (pdr5∆): 3.24 ± 0.1
- protein stability index (san1∆): 3.1 ± 0.068
- protein stability index (ubr1∆): 3.27 ± 0.08

Sequence: YPRLQDPSRELNVIIDQ [YCS4]
- protein stability index (doa10∆): 3.2 ± 0.076
- protein stability index (pdr5∆): 3.09 ± 0.08
- protein stability index (san1∆): 3.34 ± 0.052
- protein stability index (ubr1∆): 3.07 ± 0.082

Sequence: YQNQFVEFCRNINSTDK [YML103C/NUP188]
- protein stability index (doa10∆): 3.04 ± 0.11
- protein stability index (pdr5∆): 2.76 ± 0.088
- protein stability index (san1∆): 2.6 ± 0.12
- protein stability index (ubr1∆): 2.92 ± 0.049

Sequence: YQRKRLVTQHKAKYNTP [RPL5]
- protein stability index (doa10∆): 3.21 ± 0.3
- protein stability index (pdr5∆): 2.8 ± 0.2

Sequence: YQTKKFYDYIKERSIVV [REC8]
- protein stability index (doa10∆): 2.49 ± 0.058
- protein stability index (pdr5∆): 2.81 ± 0.054
- protein stability index (san1∆): 2.14 ± 0.058
- protein stability index (ubr1∆): 2.72 ± 0.047

Sequence: YREAPVIYRGPEPSHID [RET1]
- protein stability index (doa10∆): 2.83 ± 0.22
- protein stability index (pdr5∆): 3.07 ± 0.23
- protein stability index (san1∆): 3.21 ± 0.16
- protein stability index (ubr1∆): 3.36 ± 0.16

Sequence: YRFFKKISEDPVKALNE [SNF12]
- protein stability index (doa10∆): 3.5 ± 0.19
- protein stability index (pdr5∆): 3.68 ± 0.2
- protein stability index (san1∆): 2.8 ± 0.23
- protein stability index (ubr1∆): 3.52 ± 0.086

Sequence: YRFYEYIYSQETKSWIN [MED1]
- protein stability index (doa10∆): 1.7 ± 0.065
- protein stability index (pdr5∆): 1.93 ± 0.06
- protein stability index (san1∆): 1.53 ± 0.11
- protein stability index (ubr1∆): 1.82 ± 0.042

Sequence: YRRLFAKRLIHGTSTSA [CDC53]
- protein stability index (doa10∆): 1.44 ± 0.11
- protein stability index (pdr5∆): 1.36 ± 0.11

Sequence: YSNSHQMAVHIATDGGR [RET1]
- protein stability index (doa10∆): 1.98 ± 0.071
- protein stability index (pdr5∆): 2.95 ± 0.086
- protein stability index (san1∆): 2.35 ± 0.13
- protein stability index (ubr1∆): 2.73 ± 0.057

Sequence: YSVYLIHEIRLNTLNNV [SIR3]
- protein stability index (doa10∆): 1.85 ± 0.089
- protein stability index (pdr5∆): 1.99 ± 0.067
- protein stability index (san1∆): 2.25 ± 0.1
- protein stability index (ubr1∆): 2.34 ± 0.048

Sequence: YTAVDTAKLQMRRFILG [RPN14]
- protein stability index (doa10∆): 1.35 ± 0.27
- protein stability index (pdr5∆): 1.47 ± 0.093
- protein stability index (san1∆): 1.55 ± 0.3
- protein stability index (ubr1∆): 1.25 ± 0.18

Sequence: YTDRDQDEVNKGPAIDE [NNF1]
- protein stability index (doa10∆): 2.12 ± 0.092
- protein stability index (pdr5∆): 2.01 ± 0.085
- protein stability index (san1∆): 1.89 ± 0.13
- protein stability index (ubr1∆): 2.13 ± 0.14

Sequence: YTSIVQCCEFMTMLTPN [YML103C/NUP188]
- protein stability index (doa10∆): 2.13 ± 0.051
- protein stability index (pdr5∆): 2.03 ± 0.05
- protein stability index (san1∆): 1.95 ± 0.062
- protein stability index (ubr1∆): 2 ± 0.044

Sequence: YVGNKRLELAGQLISLL [RET1]
- protein stability index (doa10∆): 2.84 ± 0.083
- protein stability index (pdr5∆): 3.25 ± 0.092
- protein stability index (san1∆): 2.7 ± 0.074
- protein stability index (ubr1∆): 2.92 ± 0.079

Sequence: YVKDARKDTVSREVLRY [RPC40]
- protein stability index (doa10∆): 3.64 ± 0.13
- protein stability index (pdr5∆): 3.2 ± 0.14
- protein stability index (san1∆): 3.33 ± 0.071
- protein stability index (ubr1∆): 3.21 ± 0.11

Sequence: YVPTRNTFNYDVKISND [RPN4]
- protein stability index (doa10∆): 1.85 ± 0.068
- protein stability index (pdr5∆): 2.3 ± 0.065
- protein stability index (san1∆): 2.29 ± 0.078
- protein stability index (ubr1∆): 2.25 ± 0.056

Sequence: YWKLWIDEPFNLDFDPR [FAS1]
- protein stability index (doa10∆): 3.52 ± 0.12
- protein stability index (pdr5∆): 2.84 ± 0.13
- protein stability index (ubr1∆): 2.27 ± 0.15

Sequence: YWYFLQKLHKVKKASGE [RPL20A]
- protein stability index (doa10∆): 3.1 ± 0.093
- protein stability index (pdr5∆): 2.86 ± 0.068
- protein stability index (san1∆): 3.13 ± 0.049
- protein stability index (ubr1∆): 2.97 ± 0.063

Sequence: YYSLNIDYHKTAKETKM [RPN11]
- protein stability index (doa10∆): 2.75 ± 0.067
- protein stability index (pdr5∆): 2.77 ± 0.072
- protein stability index (san1∆): 2.87 ± 0.053
- protein stability index (ubr1∆): 2.74 ± 0.06

Sequence: YYYYHPMNAPTPAMIPY [DSN1]
- protein stability index (doa10∆): 2.14 ± 0.047
- protein stability index (pdr5∆): 2.39 ± 0.05
- protein stability index (san1∆): 2.49 ± 0.066
- protein stability index (ubr1∆): 2.46 ± 0.039
